The values below come from patent US20110200585A1.

One test concerns the target Cyno FcRn (cyno) (UniProt Q8SPV9). The test can be described thus: SPR, ProteOn XPR36; antibody amine-coupled to GLM chip, FcRn 8-2048 nM as analyte, equilibrium fit, pH 6.0. For orientation: SPR reads the build-up and loss of mass on a sensor chip optically.
The next test concerns the target Human FcRn (human) (UniProt P55899). Described as above.
Another test addresses Mouse FcRn (mouse) (UniProt Q61559). The test is described as above.
Another test deals with rat FcRn (rat) (UniProt P13599). The test is described as above.
The target of a further test is Fcγ (Val) (UniProt P08637). Put plainly: SPR, ProteOn XPR36; antibody amine-coupled to GLM chip, receptor 8-2048 nM as analyte, equilibrium fit, pH 7.4.
A further test addresses Fcγ1 (UniProt P12314). Described as above.
The target of another test is Fcγ2a (Arg) (UniProt P12318). The test is described as above.
For the next test, the target named is Fcγ3a (Phe) (UniProt P08637). The description is as above.
Fcγ3a (Phe), sequence (P08637 17-208): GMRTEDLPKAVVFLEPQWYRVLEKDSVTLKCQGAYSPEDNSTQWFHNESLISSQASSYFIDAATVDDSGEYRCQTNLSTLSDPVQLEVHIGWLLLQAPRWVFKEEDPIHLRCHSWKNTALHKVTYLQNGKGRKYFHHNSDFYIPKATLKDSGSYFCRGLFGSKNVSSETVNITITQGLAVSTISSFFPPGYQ

rat FcRn (rat), sequence (P13599 23-298 limits assumed, form in doubt, chain 1 of 2): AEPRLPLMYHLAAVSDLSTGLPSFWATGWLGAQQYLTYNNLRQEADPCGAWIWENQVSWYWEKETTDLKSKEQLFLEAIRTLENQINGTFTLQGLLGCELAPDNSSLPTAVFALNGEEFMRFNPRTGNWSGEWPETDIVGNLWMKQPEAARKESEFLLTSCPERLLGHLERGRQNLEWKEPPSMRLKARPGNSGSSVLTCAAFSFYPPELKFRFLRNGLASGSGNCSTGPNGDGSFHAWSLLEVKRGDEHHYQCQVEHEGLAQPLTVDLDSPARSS
rat FcRn (rat), sequence (chain, as listed by the source limits assumed, form in doubt, chain 2 of 2): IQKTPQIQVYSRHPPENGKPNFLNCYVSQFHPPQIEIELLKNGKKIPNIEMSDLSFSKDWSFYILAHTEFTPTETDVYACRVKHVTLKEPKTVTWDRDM
Mouse FcRn (mouse), sequence (Q61559 22-297 limits assumed, form in doubt, chain 1 of 2): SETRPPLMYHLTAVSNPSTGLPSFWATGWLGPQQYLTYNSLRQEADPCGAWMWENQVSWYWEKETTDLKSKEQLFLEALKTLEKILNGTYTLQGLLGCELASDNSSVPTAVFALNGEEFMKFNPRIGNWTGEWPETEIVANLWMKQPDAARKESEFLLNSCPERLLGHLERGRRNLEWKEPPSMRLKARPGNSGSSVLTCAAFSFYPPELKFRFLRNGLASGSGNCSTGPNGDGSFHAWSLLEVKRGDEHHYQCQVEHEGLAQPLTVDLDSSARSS
Mouse FcRn (mouse), sequence (chain, as listed by the source limits assumed, form in doubt, chain 2 of 2): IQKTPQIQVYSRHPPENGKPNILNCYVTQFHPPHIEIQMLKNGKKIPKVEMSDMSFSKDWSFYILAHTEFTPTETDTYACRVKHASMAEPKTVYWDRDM
Human FcRn (human), sequence (P55899 24-297 limits assumed, chain 1 of 2): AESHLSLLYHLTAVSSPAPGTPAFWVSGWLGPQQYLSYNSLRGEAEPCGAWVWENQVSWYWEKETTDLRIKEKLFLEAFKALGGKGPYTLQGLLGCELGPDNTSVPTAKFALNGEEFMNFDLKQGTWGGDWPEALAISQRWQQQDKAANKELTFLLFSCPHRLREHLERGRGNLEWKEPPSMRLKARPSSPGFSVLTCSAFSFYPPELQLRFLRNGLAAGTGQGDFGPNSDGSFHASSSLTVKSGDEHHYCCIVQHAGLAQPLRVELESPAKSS
Human FcRn (human), sequence (chain, as listed by the source limits assumed, chain 2 of 2): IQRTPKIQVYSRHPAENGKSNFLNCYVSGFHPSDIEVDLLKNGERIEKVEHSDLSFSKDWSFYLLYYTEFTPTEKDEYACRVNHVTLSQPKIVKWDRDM
Fcγ1, sequence (P12314 16-288): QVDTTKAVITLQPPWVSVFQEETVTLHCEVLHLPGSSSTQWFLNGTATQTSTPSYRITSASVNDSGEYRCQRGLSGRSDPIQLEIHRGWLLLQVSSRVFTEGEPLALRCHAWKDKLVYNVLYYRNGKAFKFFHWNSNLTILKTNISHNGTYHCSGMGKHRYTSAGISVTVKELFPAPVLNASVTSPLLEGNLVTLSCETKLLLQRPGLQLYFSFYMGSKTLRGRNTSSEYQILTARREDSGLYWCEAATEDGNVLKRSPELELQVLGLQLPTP
Fcγ (Val), sequence (P08637 17-208 F176V): as the sequence (P08637 17-208) above, with F160V counted along it
Fcγ2a (Arg), sequence (P12318 34-217 H167R): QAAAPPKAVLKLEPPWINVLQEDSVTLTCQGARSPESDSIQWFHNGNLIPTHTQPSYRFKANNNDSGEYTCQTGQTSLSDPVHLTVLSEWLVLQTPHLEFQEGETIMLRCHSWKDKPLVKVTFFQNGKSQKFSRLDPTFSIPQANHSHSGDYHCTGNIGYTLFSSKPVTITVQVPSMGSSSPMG

One may read the Kd as the free concentration of one partner at which half of the binding sites on the other are occupied at equilibrium, for simple one-to-one binding. Low values mean higher affinity, high ones lower affinity. Consider Control Ab (Fc WT) (antibody), for which the Kd was 156 nM with Cyno FcRn (cyno); 95 nM with Human FcRn (human); 160 nM with Mouse FcRn (mouse); 112 nM with rat FcRn (rat); 442 nM with Fcγ (Val); 14.9 nM in the test with Fcγ1. Besides, the results for the dissociation constant (Kd) with Fcγ2a (Arg) and in the test with Fcγ3a (Phe) were 1290 nM and 1840 nM, respectively.

As for Control Ab (Fc disabled) (antibody), the Kd with Cyno FcRn (cyno) stood at 195 nM; in the test with Human FcRn (human), 154 nM; with Mouse FcRn (mouse) it was 171 nM; in the test with rat FcRn (rat), 118 nM.
